Several values for one entry are separate records, joined by “and”; a condition that tells them apart may be missing. Equal values may be shown once.
B1: Lysozyme C, P61626 (parent)
chain: MKALIVLGLVLLSVTVQGKVFERCELARTLKRLGMDGYRGISLANWMCLAKWESGYNTRATNYNAGDRSTDYGIFQINSRYWCNDGKTPGAVNACHLSCSALLQDNIADAVACAKRVVRDPQGIRAWVAWRNRCQNRDVRQYVQGCGV

Variants of: B1
Conditions: Homo sapiens; pH 2.5; Thermal; DSC; glycine-HCl 0.05 M; reversible: yes; structure 1LZ1; whole UniProt chain shown

Variant | Tm [°C] | unfolding enthalpy (calorimetric) [kcal/mol]
MKALIVLGLVLLSVTVQGKIFERCELARTLKRLGMDGYRGISLANWMCLAKWESGYNTRATNYNAGDRSTDYGIFQINSRYWCNDGKTPGAVNACHLSCSALLQDNIADAVACAKRVVRDPQGIRAWVAWRNRCQNRDVRQYVQGCGV [V20I] | 65.1 | 108
MKALIVLGLVLLSVTVQGKVFERCELARTLKRLGMDGYRGISLANWMCLAKWESGYNTRATNYNAGDRSTDYGIFQINSRYWCNDGKTPGALNACHLSCSALLQDNIADAVACAKRVVRDPQGIRAWVAWRNRCQNRDVRQYVQGCGV [V92L] | 62.4 | 100

Same assay, conditions: Homo sapiens; pH 2.7; 64.9 °C; Thermal; DSC; glycine-HCl 0.05 M; reversible: yes; structure 1LZ1; whole UniProt chain shown

Variant | ddG of mutation (higher = less stable) [kcal/mol]
MKALIVLGLVLLSVTVQGKIFERCELARTLKRLGMDGYRGISLANWMCLAKWESGYNTRATNYNAGDRSTDYGIFQINSRYWCNDGKTPGAVNACHLSCSALLQDNIADAVACAKRVVRDPQGIRAWVAWRNRCQNRDVRQYVQGCGV [V20I] | -1.1
MKALIVLGLVLLSVTVQGKMFERCELARTLKRLGMDGYRGISLANWMCLAKWESGYNTRATNYNAGDRSTDYGIFQINSRYWCNDGKTPGAVNACHLSCSALLQDNIADAVACAKRVVRDPQGIRAWVAWRNRCQNRDVRQYVQGCGV [V20M] | 0.31
MKALIVLGLVLLSVTVQGKVFERCELARTLKRLGMDGYRGISLANWMCLAKWESGYNTRATNYNAGDRSTDYGIFQINSRYWCNDGKTPGALNACHLSCSALLQDNIADAVACAKRVVRDPQGIRAWVAWRNRCQNRDVRQYVQGCGV [V92L] | -0.19

Same assay, conditions: Homo sapiens; pH 2.7; Thermal; DSC; glycine-HCl 0.05 M; reversible: yes; structure 1LZ1; whole UniProt chain shown

Variant | Tm | change of melting temperature, mutant - wild type (higher = more stable) [°C] | heat capacity change of unfolding [kcal/mol/K] | unfolding enthalpy (calorimetric)
MKALIVLGLVLLSVTVQGKIFERCELARTLKRLGMDGYRGISLANWMCLAKWESGYNTRATNYNAGDRSTDYGIFQINSRYWCNDGKTPGAVNACHLSCSALLQDNIADAVACAKRVVRDPQGIRAWVAWRNRCQNRDVRQYVQGCGV [V20I] | 68 °C and 68.3 °C and 64.9 °C | 3.4 | 1.58 | 114 kcal/mol and 108 kcal/mol
MKALIVLGLVLLSVTVQGKMFERCELARTLKRLGMDGYRGISLANWMCLAKWESGYNTRATNYNAGDRSTDYGIFQINSRYWCNDGKTPGAVNACHLSCSALLQDNIADAVACAKRVVRDPQGIRAWVAWRNRCQNRDVRQYVQGCGV [V20M] | 63.9 °C | -1 | 1.55 | 113 kcal/mol
MKALIVLGLVLLSVTVQGKVFERCELARTLKRLGMDGYRGISLANWMCLAKWESGYNTRATNYNAGDRSTDYGIFQINSRYWCNDGKTPGALNACHLSCSALLQDNIADAVACAKRVVRDPQGIRAWVAWRNRCQNRDVRQYVQGCGV [V92L] | 65.3 °C and 65.5 °C and 64.9 °C | 0.6 | 1.27 | 104 kcal/mol and 103 kcal/mol

Same assay, conditions: Homo sapiens; pH 2.92; Thermal; DSC; glycine-HCl 0.05 M; reversible: yes; structure 1LZ1; whole UniProt chain shown

Variant | Tm [°C] | unfolding enthalpy (calorimetric) [kcal/mol]
MKALIVLGLVLLSVTVQGKIFERCELARTLKRLGMDGYRGISLANWMCLAKWESGYNTRATNYNAGDRSTDYGIFQINSRYWCNDGKTPGAVNACHLSCSALLQDNIADAVACAKRVVRDPQGIRAWVAWRNRCQNRDVRQYVQGCGV [V20I] | 72.2 | 119

Same assay, conditions: Homo sapiens; pH 3.13; Thermal; DSC; glycine-HCl 0.05 M; reversible: yes; structure 1LZ1; whole UniProt chain shown

Variant | Tm [°C] | unfolding enthalpy (calorimetric) [kcal/mol]
MKALIVLGLVLLSVTVQGKIFERCELARTLKRLGMDGYRGISLANWMCLAKWESGYNTRATNYNAGDRSTDYGIFQINSRYWCNDGKTPGAVNACHLSCSALLQDNIADAVACAKRVVRDPQGIRAWVAWRNRCQNRDVRQYVQGCGV [V20I] | 75.5 | 125

Same assay, conditions: Homo sapiens; pH 2.52; Thermal; DSC; glycine-HCl 0.05 M; reversible: yes; structure 1LZ1; whole UniProt chain shown

Variant | Tm [°C] | unfolding enthalpy (calorimetric) [kcal/mol]
MKALIVLGLVLLSVTVQGKMFERCELARTLKRLGMDGYRGISLANWMCLAKWESGYNTRATNYNAGDRSTDYGIFQINSRYWCNDGKTPGAVNACHLSCSALLQDNIADAVACAKRVVRDPQGIRAWVAWRNRCQNRDVRQYVQGCGV [V20M] | 60.6 | 106

Same assay, conditions: Homo sapiens; pH 2.73; Thermal; DSC; glycine-HCl 0.05 M; reversible: yes; structure 1LZ1; whole UniProt chain shown

Variant | Tm [°C] | unfolding enthalpy (calorimetric) [kcal/mol]
MKALIVLGLVLLSVTVQGKMFERCELARTLKRLGMDGYRGISLANWMCLAKWESGYNTRATNYNAGDRSTDYGIFQINSRYWCNDGKTPGAVNACHLSCSALLQDNIADAVACAKRVVRDPQGIRAWVAWRNRCQNRDVRQYVQGCGV [V20M] | 64.5 | 112

Same assay, conditions: Homo sapiens; pH 2.94; Thermal; DSC; glycine-HCl 0.05 M; reversible: yes; structure 1LZ1; whole UniProt chain shown

Variant | Tm [°C] | unfolding enthalpy (calorimetric) [kcal/mol]
MKALIVLGLVLLSVTVQGKMFERCELARTLKRLGMDGYRGISLANWMCLAKWESGYNTRATNYNAGDRSTDYGIFQINSRYWCNDGKTPGAVNACHLSCSALLQDNIADAVACAKRVVRDPQGIRAWVAWRNRCQNRDVRQYVQGCGV [V20M] | 68.3 | 118

Same assay, conditions: Homo sapiens; pH 3.09; Thermal; DSC; glycine-HCl 0.05 M; reversible: yes; structure 1LZ1; whole UniProt chain shown

Variant | Tm [°C] | unfolding enthalpy (calorimetric) [kcal/mol]
MKALIVLGLVLLSVTVQGKMFERCELARTLKRLGMDGYRGISLANWMCLAKWESGYNTRATNYNAGDRSTDYGIFQINSRYWCNDGKTPGAVNACHLSCSALLQDNIADAVACAKRVVRDPQGIRAWVAWRNRCQNRDVRQYVQGCGV [V20M] | 70.6 | 122

Same assay, conditions: Homo sapiens; pH 3.31; Thermal; DSC; glycine-HCl 0.05 M; reversible: yes; structure 1LZ1; whole UniProt chain shown

Variant | Tm [°C] | unfolding enthalpy (calorimetric) [kcal/mol]
MKALIVLGLVLLSVTVQGKMFERCELARTLKRLGMDGYRGISLANWMCLAKWESGYNTRATNYNAGDRSTDYGIFQINSRYWCNDGKTPGAVNACHLSCSALLQDNIADAVACAKRVVRDPQGIRAWVAWRNRCQNRDVRQYVQGCGV [V20M] | 74.2 | 127

Same assay, conditions: Homo sapiens; pH 2.83; Thermal; DSC; glycine-HCl 0.05 M; reversible: yes; structure 1LZ1; whole UniProt chain shown

Variant | Tm [°C] | unfolding enthalpy (calorimetric) [kcal/mol]
MKALIVLGLVLLSVTVQGKVFERCELARTLKRLGMDGYRGISLANWMCLAKWESGYNTRATNYNAGDRSTDYGIFQINSRYWCNDGKTPGALNACHLSCSALLQDNIADAVACAKRVVRDPQGIRAWVAWRNRCQNRDVRQYVQGCGV [V92L] | 67.5 | 107

Same assay, conditions: Homo sapiens; pH 3.05; Thermal; DSC; glycine-HCl 0.05 M; reversible: yes; structure 1LZ1; whole UniProt chain shown

Variant | Tm [°C] | unfolding enthalpy (calorimetric) [kcal/mol]
MKALIVLGLVLLSVTVQGKVFERCELARTLKRLGMDGYRGISLANWMCLAKWESGYNTRATNYNAGDRSTDYGIFQINSRYWCNDGKTPGALNACHLSCSALLQDNIADAVACAKRVVRDPQGIRAWVAWRNRCQNRDVRQYVQGCGV [V92L] | 71.6 | 112

Same assay, conditions: Homo sapiens; pH 3.15; Thermal; DSC; glycine-HCl 0.05 M; reversible: yes; structure 1LZ1; whole UniProt chain shown

Variant | Tm [°C] | unfolding enthalpy (calorimetric) [kcal/mol]
MKALIVLGLVLLSVTVQGKVFERCELARTLKRLGMDGYRGISLANWMCLAKWESGYNTRATNYNAGDRSTDYGIFQINSRYWCNDGKTPGALNACHLSCSALLQDNIADAVACAKRVVRDPQGIRAWVAWRNRCQNRDVRQYVQGCGV [V92L] | 73.3 | 114
